US20170050988A1, “DOTAM DERIVATIVES FOR THERAPEUTIC USE” (priority 2013, published 2017)
Starred links: 1 amine or outer side, 2 acyl side, 3 side chain; linkers in the order of their positions; H or OH if unused. Positions of bridges follow the written chain, without caps; N, C: chain ends. Non-standard residues stand in square brackets, D forms with d. Residues, ends and D or L forms follow the SMILES beside them. Chains are numbered I, II in the order given. *: point of attachment. X3 = NCCOCCOCCNC(=O)CN1CCN(CC(=O)NCCOCCOCCN[*:1])CCN(CC(=O)NCCOCCOCCN)CCN(CC(=O)NCCOCCOCCN[*:2])CC1; X2 = CC(C)C[C@H](N[*:1])[C@H](O)CC(=O)[*:2]; Sta = CC(C)C[C@H](N)[C@@H](O)CC(=O)O; Isovaleryl = CC(C)CC(=O)*

Legend:
[1] = T1 of contrast agent in DPBS; assay type: physicochemical; conditions: 0.2 mM in DPBS
Experimental: To explore the potential of cartilage targeting agents as practical MRI contrast agents for accurate diagnostic imaging, we investigated HHY-316Gd in vivo with healthy rats. As an essentially non-binding control, contrast agent HHY-341Gd (T1=1368±10 ms, 0.2 mM in DPBS) with the non-binding scrambled peptide sequence YRLGRW and acetylated amine groups was used as reference. MRI was performed using a 4.7 T Bruker BioSpec whole body MR imager. Male skeletally mature Lewis rats were anesthetized (by Isoflurane), fixed in supine position and both knees were placed within a transmitting/receiving wrist coil. […] In the HHY-316Gd applied knees there is a significant MRI signal enhancement of the articular and growth plate cartilages which consist principally of collagen II and proteoglycan. The signal intensity (SI) in the articular cartilage and growth plate increased 86% and 77% after 24 hours following administration of HHY-316Gd and increased 84% and 85% at 72 hours after intra-articular injection, respectively (FIGS. 6-11). […]
To assist histological examination of joint slices after termination of the study, we decided to co-administer a second probe, HHY-338 (T1=11493±27 ms, 0.2 mM in DPBS), containing a Cy5.5 moiety. […] Chondrophyte/osteophyte regions were examined in sections stained with safranin O/fast green and recorded using a Zeiss Miraxscan microscope (FIG. 12b).

[2] = Solubility in DMSO after lyophilization; assay type: physicochemical
Experimental: 1 equiv. […] DIPEA (10 λl, 60 μmol). The reaction mixture was stirred under argon at room temperature for 2 days. The solvent was directly purified by preparative HPLC to give HHY-328 (4.3 mg, Yield: 22.6%) as a white powder.

Cathepsin D = molecular target: T1, Cathepsin D (Homo sapiens, UniProt P07339); experiment: Cathepsin D enzyme assay; assay type: biochemical
T1 construct: purchased Biomol Se-199
Experimental: For quantification of Cathepsin D inhibitory activity, an enzymatic assay was used that measures the turnover of a quenched, fluorescenctly-labeled, Cathepsin D-cleavable, peptide substrate over time.
Specifically, 13 ng of purified Cathepsin D enzyme (Biomol; Cat.No. Se-199) was administered per well of a 96 well plate, substance/inhibitor of interest was added and the mixture incubated for 10 min. at 37° C. Then, the enzymatic reaction was started by addition of fluorescenctly-labeled, Cathepsin D-Substrat ([…] (7-Methoxycoumarin-4-yl)-acetyl-Pro-Leu-Gly-Leu-(3 [2,4-dinitrophenyl]-L-2,3-diaminopropionyl)-Ala-Arg-NH2 (Bachem M-1895). The reaction volume amounts to 30 μl and contains 50 mM acetic acid, 200 mM NaCl and 0.003% Brij 35 and was adjusted to pH 4.5 with acetic acid. By cleavage of the peptide chain, the […] is released and the emission of fluorescence dye is measured using excitation/emission wavelengths ([…]) on a Tecan Spectrafluor Plus—instrument at 37° C. for 10 min. For the determination of the compound dose response, a 10 mM DMSO stock solution was diluted and tested in a ten-point, three-fold dilution series run in duplicate beginning at 30 μM final concentration. Data were analyzed using a four-parameter curve fit with a fixed minimum and maximum experimentally defined as the average positive and negative controls on each plate.

[3] = Solubility in phosphate buffer; assay type: physicochemical; conditions: phosphate buffer at pH 7.4; read-out: solubility
[4] = tested on: pig articular cartilage explants; experiment: Ex vivo GAG release model with pig articular cartilage explants; assay type: cell-based; conditions: explants pre-incubated with 1 μM inhibitor 24 h, then washed

T1 sequence (P07339 65-412): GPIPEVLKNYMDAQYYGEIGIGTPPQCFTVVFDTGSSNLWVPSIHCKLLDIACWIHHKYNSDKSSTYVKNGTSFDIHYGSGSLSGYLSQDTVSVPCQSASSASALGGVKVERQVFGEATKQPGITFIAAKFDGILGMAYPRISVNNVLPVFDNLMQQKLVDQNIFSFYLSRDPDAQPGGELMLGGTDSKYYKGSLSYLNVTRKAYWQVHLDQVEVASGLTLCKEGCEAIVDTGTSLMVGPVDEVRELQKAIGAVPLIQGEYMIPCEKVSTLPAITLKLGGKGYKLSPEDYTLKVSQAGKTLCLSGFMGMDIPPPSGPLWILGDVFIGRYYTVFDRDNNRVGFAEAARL

AcYRLGRW-DOTA-[Gd3^+] [HHY-341Gd]
T1 [1]: 1368 ± 10 ms

AcWYRGRL-DOTA-(Pepstatin A)3 [HHY-328]
solubility in DMSO [2]: only slightly soluble

CC(=O)N[C@@H](Cc1c[nH]c2ccccc12)C(=O)N[C@@H](Cc1ccc(O)cc1)C(=O)N[C@@H](CCCNC(=N)N)C(=O)NCC(=O)N[C@@H](CCCNC(=N)N)C(=O)N[C@@H](CC(C)C)C(=O)NCCOCCOCCNC(=O)CN1CCN(CC(=O)NCCOCCOCCN)CCN(CC(=O)NCCOCCOCCNC(=O)C[C@@H](O)[C@H](CC(C)C)NC(=O)[C@H](C)NC(=O)C[C@H](O)[C@H](CC(C)C)NC(=O)[C@@H](NC(=O)[C@@H](NC(=O)CC(C)C)C(C)C)C(C)C)CCN(CC(=O)NCCOCCOCCN)CC1 [HHY-327, AcWYRGRL-DOTA-Pepstatin A] (I: Ac-WYRGRL / II: Isovaleryl-VV[Sta]A[X2]; linker I:C-II:C via X3)
IC50 (Cathepsin D): 2.1 nM
solubility [3]: > 5920 µg/mL
inhibition of GAG release ([4]; 24 hours after stimulation at pH 5.0): 41%
inhibition of GAG release ([4]; 48 hours after stimulation at pH 5.0): no differentiating effect
effect on acid-stimulated GAG release / degradation (FIG. 3) ([4]; pH 5.0): very impressive effect

AcWYRGRL-DOTA-Cy5.5-[Gd3+] [HHY-338]
T1 [1]: 11493 ± 27 ms
